In patent publication US20240034792A1 (HARBOUR BIOMED SHANGHAI, published 2024):
Changes are numbered by the printed parent chain.

B1: PR005090 (VHH)
VHH: EVQLVETGGGLIQPGGSLRLSCAASGFNVSSHYMSWVRQAPGKGREWVSIIDGGGSTYYADSVKGRFTISRDNSKNRLYLQMNSLRAEDTAMYYCARATAVAEKNGYNYPFNYWGQGTLVTVSS
notes: Monovalent single-domain (VH) antibody with Flag-6His tag
B2: PR005093 (VHH)
VHH: B1 VHH with A100R, A102R, K104A
notes: Monovalent single-domain (VH) variant of PR002481 with Flag-6His tag
B3: PR005096 (VHH)
VHH: B1 VHH with A100R, A102P, N105G
notes: as for B2
B4: PR005097 (VHH)
VHH: B1 VHH with A102R
notes: as for B2
B5: PR005098 (VHH)
VHH: B1 VHH with A100Q, A102R, N105G
notes: as for B2
B6: PR005099 (VHH)
VHH: B1 VHH with G53S, G54A
notes: as for B2
B7: PR005100 (VHH)
VHH: B1 VHH with G53R, T57K
notes: as for B2
B8: PR005101 (VHH)
VHH: B1 VHH with G53K, S56G
notes: as for B2
B9: PR005102 (VHH)
VHH: B1 VHH with G53R
notes: as for B2
B10: PR005141 (VHH)
VHH: B1 VHH with S31Y, H32F, G53K, T57G, D61A, A100E, A102R
notes: as for B2
B11: PR005142 (VHH)
VHH: B1 VHH with S31F, H32Y, G53K, T57G, D61A, A100E, A102R
notes: as for B2
B12: PR005144 (VHH)
VHH: B1 VHH with S31F, H32Y, G53K, G54S, D61A, A100E, A102R
notes: as for B2
B13: PR005145 (VHH)
VHH: B1 VHH with S31F, H32Y, G53K, A60G, A100E, A102R
notes: as for B2
B14: PR005147 (VHH)
VHH: B1 VHH with S31Y, H32Y, G53K, G54A, A60G, D61A, A100M, A102R
notes: as for B2
B15: PR005148 (VHH)
VHH: B1 VHH with G53K, G54A, T57G, D61A, A100E, A102R
notes: as for B2
B16: PR005149 (VHH)
VHH: B1 VHH with G53K, G54A, T57G, A100E, A102R, N105Q
notes: as for B2
B17: PR005150 (VHH)
VHH: B1 VHH with H32F, G53K, G54A, A60G, D61A, A100E, A102R, N105Q
notes: as for B2
B18: PR002473 (antibody, human IgG1, V domains shown)
VH: B1 VHH with R45L, D52H, G53S, R86I, M92V, T99I
notes: Heavy-chain-only antibody (HCAb), human IgG1 Fc; two heavy chains, no light chain; also called R4004P541H11
B19: PR002475 (antibody, human IgG1, V domains shown)
VH: B1 VHH with H32N, R45L, D52H, G53S, R77T, M92V, T99I
notes: Heavy-chain-only antibody (HCAb), human IgG1 Fc; two heavy chains, no light chain; also called R4004P547D9
B20: PR002477 (antibody, human IgG1, V domains shown)
VH: B1 VHH with R45L, D52H, G53S, M92V, T99I
notes: Heavy-chain-only antibody (HCAb), human IgG1 Fc; two heavy chains, no light chain; also called R4004P547H9
B21: PR002478 (antibody, human IgG1, V domains shown)
VH: B1 VHH with H32N, R45L, D52H, G53S, M92V, T99I
notes: Heavy-chain-only antibody (HCAb), human IgG1 Fc; two heavy chains, no light chain; also called R4004P548A8
B22: PR005146 (VHH)
VHH: B1 VHH with S31F, G54A, T57G, D61A, A100M, A102R, N105Q
notes: as for B2

Each binder was assayed against T1, Human PD-1 expressed on CHO-K1 cells (CHO-K1/hPD-1) (human, UniProt Q15116 25-288) (assay: FACS, CHO-K1/hPD-1 cells).
T1 construct: whole, on cells; also called CHO-K1 cells overexpressing human PD-1
T1 sequence (Q15116 25-288): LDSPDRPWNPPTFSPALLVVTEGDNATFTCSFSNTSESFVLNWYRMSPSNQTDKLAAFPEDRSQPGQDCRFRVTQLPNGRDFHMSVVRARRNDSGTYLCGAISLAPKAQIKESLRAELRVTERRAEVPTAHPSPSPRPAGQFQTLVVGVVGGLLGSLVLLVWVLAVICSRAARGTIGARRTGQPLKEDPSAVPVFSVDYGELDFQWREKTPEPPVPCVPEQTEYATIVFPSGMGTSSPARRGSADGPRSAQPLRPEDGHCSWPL
Method: (§1) In order to investigate the in vitro binding activity of the PD-1 antigen-binding proteins to human/cynomolgus monkey PD-1, the binding assay at the cellular level was performed using a CHO-K1 cell strain overexpressing human or cynomolgus monkey PD-1 (CHO-K1/hPD-1 or CHO-K1/cyno PD-1, from GenScript). Briefly, the CHO-K1-hPD-1 cells were digested and resuspended in an F-12K complete medium, and the cell density was adjusted to 1×10⁶ cells/mL. The cells were seeded in a 96-well V-bottom plate (Corning, Cat#3894) at 100 μL/well, followed by the addition of the test antigen-binding proteins with concentrations 2-fold of final concentrations obtained by 5-fold gradient dilution were each added at 100 μL/well. The mixtures were well mixed. The maximum final concentration of the antigen-binding proteins was 100 nM or 300 nM. A total of 8-11 concentrations were set. hIgG was used as a control. The cells were incubated at 4° C. for 1 h away from light. Thereafter, the cells in each well were rinsed twice with 100 μL of pre-cooled PBS, and centrifuged at 500 g at 4° C. for 5 min, and then the supernatant was discarded. Then 100 μL of a fluorescent secondary antibody (goat anti-human IgG (H+L) secondary antibody, Alexa Fluor® 488 conjugate, Invitrogen, Cat #A11013, 1:1000) was added to each well. The plate was incubated away from light at 4° C. for 30 min. The cells in each well were rinsed twice with 200 μL of pre-cooled PBS, and centrifuged at 500 g at 4° C. for 5 min, and then the supernatant was discarded. Finally, the cells in each well were resuspended in 200 μL of pre-cooled PBS, and the fluorescence signal values were read using a BD FACS CANTOII.

Binder	EC50 [nM]	MFI Maximum
B1	48.9	4150
B2	10.5	4530
B3	27.6	4320
B4	17.9	4080
B5	18.4	5720
B6	15.4	6350
B7	19	6510
B8	22.1	6900
B9	12.2	6560

Biological target: T1, Human PD-1 expressed on CHO-K1 cells …
Assay: FACS, CHO-K1/hPD-1 cells
Remark: another data set of the same source
Method: as §1

Binder	EC50 [nM]	MFI Maximum
B1	48.9	4150
B10	110	13300
B11	70.9	12400
B12	22.9	11600
B13	18	10500
B14	382	18000
B15	27.6	11700
B16	10.9	11100
B17	22.4	10400
B18	25.6	1.04e+06
B19	18.5	959000
B20	29.3	955000
B21	20.6	953000

The binders below were run against T2, Human PD-1 protein with histidine and avi tags (ACRO Biosystems, PD1-H82E4) (human, UniProt Q15116 25-167) (assay: BLI; ratio of kdis, apparently PR005090 over the variant).
T2 construct: Captured on streptavidin (SA) sensors in the BLI assay; not shown: histidine and avi tags
T2 sequence (Q15116 25-167 limits assumed): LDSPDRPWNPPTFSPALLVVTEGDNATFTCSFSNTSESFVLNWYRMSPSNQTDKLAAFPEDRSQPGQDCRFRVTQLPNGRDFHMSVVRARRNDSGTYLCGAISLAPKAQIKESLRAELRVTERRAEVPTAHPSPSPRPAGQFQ
Method: (§2) Human PD-1 proteins with histidine and avi tags were purchased from the manufacturer ACRO Biosystems (Cat#: PD1-H82E4), and the assay buffer was 1× kinetics buffer (diluted from 10× kinetics buffer (ForteBio, Cat#: 18-1105)) for kinetic assay and dilution of antigens and antibodies. The binding kinetics between the antigen and the antibody was analyzed by the biolayer interferometry (BLI) technique using an Octet molecular interaction analyzer (ForteBio, model: Octet Red96e).
(§3) When the binding kinetics between the antigen and the antibody was determined, the rotation speed of the sensor was set at 1000 rpm/min. The eight SA sensors placed in a column were first equilibrated in an assay buffer for 10 min and then used to capture PD-1 at a capture height of 0.5 nm. Thereafter, the SA sensors were equilibrated in the assay buffer for 100 s, and then were associated with each antibody diluted to a single concentration and with a row of blank buffer wells for 180 s, followed by dissociation for 600 s. A new column of SA sensors were used in each cycle.
(§4) When data analysis was performed using Octet Data Analysis software (Fortebio, version 11.0), the reference signals were subtracted by a single reference mode (reference well), the data were fitted by a “1:1 Local fitting” method, and the kinetic parameters of the binding of the antigen to the antibody were calculated to obtain kon (1/Ms) values, kdis (1/s) values and KD (M) values.

Binder	kdis ratio
B2	1.8
B3	1.91
B4	1.46
B5	2.9
B6	2.51
B7	3.8
B8	6.61
B9	4.25
B10	14.7
B11	20.6
B12	25.2
B13	21.8
B22	1.89
B14	41.7
B15	20
B16	23.7

These binders were tested against T2, Human PD-1 protein with histidine and … (assay: BLI (Octet Red96e), PD-1 captured on SA sensor, 1:1 local fit).
Method: as §2, §3, §4

Binder	Kd [nM]	koff [s⁻¹]	kon [M⁻¹ s⁻¹]
B1	20.8	0.00114	55000
B2	4.82	0.000636	132000
B3	10.4	0.000599	57900
B4	13.9	0.000784	56600
B5	5.88	0.000394	67100
B6	4.32	0.000455	105000
B7	11.6	0.000301	26000
B8	58.8	0.000173	2940
B9	5.99	0.000268	44800
B10	1.49	7.75e-05	52100
B11	6.76	5.55e-05	8200
B12	4.51	4.52e-05	10000
B13	5.31	5.24e-05	9860
B22	1020	0.000605	593
B14	16.5	2.74e-05	1660
B15	1.21	5.72e-05	47200
B16	14	4.83e-05	3450
B17	< 0.001	< 1e-07	59000

These binders were tested against T1, Human PD-1 expressed on CHO-K1 cells … (assay: FACS blocking of biotin-labeled human PD-L1 binding to CHO-K1-hPD-1 cells).
Method: Briefly, the CHO-K1-hPD-1 cells were digested and resuspended in an F-12K complete medium, and the cell density was adjusted to 1×10⁶ cells/mL. The cells were seeded in a 96-well V-bottom plate (Corning, Cat#3894) at 100 μL/well, followed by the addition of the test antigen-binding proteins with concentrations 2-fold of final concentrations obtained by 3-fold or 5-fold gradient dilution were each added at 100 μL/well. The mixtures were well mixed. The maximum final concentration of the antigen-binding proteins was 100 nM or 300 nM. A total of 8 concentrations were set. hIgG was used as a control. The cells were incubated at 4° C. for 1 h away from light. […] The cells were incubated at 4° C. away from light for 30 min. The cells in each well were rinsed twice with 100 μL of pre-cooled PBS, and centrifuged at 500 g at 4° C. for 5 min, and then the supernatant was discarded. A fluorescent secondary antibody (PE Streptavidin, BD, Cat# 554061, 1:200) was added at 100 μL/well, and the cells were incubated at 4° C. away from light for 30 min. The cells in each well were rinsed twice with 200 μL of pre-cooled PBS, and centrifuged at 500 g at 4° C. for 5 min, and then the supernatant was discarded. Finally, the cells in each well were resuspended in 200 μL of pre-cooled PBS, the fluorescence signal values were read using a BD FACS CANTOII, and the IC₅₀ values were calculated.

Binder	IC50 [nM]	Maximum inhibition rate (%)
B18	4.79	62.2
B19	37.5	92.1
B20	7.7	67.5
B21	54.5	97
